What was measured:
[1] = molecular target: ClfB (clumping factor B of S. aureus, NCBI Protein GI 15925620) (Staphylococcus aureus), Q99R07; assay: cell-based or functional assay
[2] = molecular target: His-tagged recombinant ClfB protein (Staphylococcus aureus); assay: pull-down competition on His-tagged ClfB beads, anti-GST Western blot, densitometry; competes with GST-tagged Frag2-CDS

Sequence of ClfB (clumping factor B of S. aureus, NCBI Protein GI 15925620) (Staphylococcus aureus), Q99R07 (Q99R07 45-841 limits assumed): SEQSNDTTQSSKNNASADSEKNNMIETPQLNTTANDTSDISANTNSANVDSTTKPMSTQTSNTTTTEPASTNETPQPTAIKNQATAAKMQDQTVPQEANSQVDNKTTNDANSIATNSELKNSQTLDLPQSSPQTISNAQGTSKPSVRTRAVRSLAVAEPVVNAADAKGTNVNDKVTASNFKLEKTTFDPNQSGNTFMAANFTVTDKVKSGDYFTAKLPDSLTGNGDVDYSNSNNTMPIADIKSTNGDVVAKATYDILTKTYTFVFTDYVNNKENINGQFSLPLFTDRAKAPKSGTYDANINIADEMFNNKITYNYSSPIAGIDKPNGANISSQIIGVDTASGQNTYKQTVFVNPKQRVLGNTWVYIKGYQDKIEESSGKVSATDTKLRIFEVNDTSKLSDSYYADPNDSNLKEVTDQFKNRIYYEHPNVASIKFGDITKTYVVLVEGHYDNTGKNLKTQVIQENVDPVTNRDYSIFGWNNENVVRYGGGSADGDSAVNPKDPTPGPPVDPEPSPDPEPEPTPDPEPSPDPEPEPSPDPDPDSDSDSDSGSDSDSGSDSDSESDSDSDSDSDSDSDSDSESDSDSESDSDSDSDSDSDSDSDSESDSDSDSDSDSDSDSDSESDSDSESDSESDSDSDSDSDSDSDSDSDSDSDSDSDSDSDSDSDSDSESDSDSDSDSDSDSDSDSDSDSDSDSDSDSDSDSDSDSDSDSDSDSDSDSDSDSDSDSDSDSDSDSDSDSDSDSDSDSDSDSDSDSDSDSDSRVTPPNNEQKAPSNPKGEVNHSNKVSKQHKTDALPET

| Binder | beta-galactosidase expression (X-Gal beta galactosidase overlay assay, Y2H) (% more than the original binder) [1] | percent inhibition of the binding of GST-tagged keratin fragment to ClfB-protein at 1 µM peptide [2] [%] |
| --- | --- | --- |
| YSLGSSFGSGAGSSSLGRTSSSRAVVVK (modifications not checked) [stronger binder (peptide SEQ ID NO 97)] | > 50 |  |
| YSLGSSFGSGAGSSSSSRTSPSRAVVVK (modifications not checked) [more stronger binder (peptide SEQ ID NO 73)] | > 100 |  |
| SYSLGSSFGSGAGSSSFSRTS (modifications not checked) [IPEP-21SA (synthetic peptide of 21 amino acids)] |  | 40 |
